The chains are these.
T1: human Angiopoietin-1 (human, UniProt Q15389 20-498, limits assumed)
T1 construct: Bought recombinant protein (R&D Systems 293-AN-025/CF) or supernatant of transfected 293F cells; also called Ang-1; recombinant Ang-1
T1 sequence: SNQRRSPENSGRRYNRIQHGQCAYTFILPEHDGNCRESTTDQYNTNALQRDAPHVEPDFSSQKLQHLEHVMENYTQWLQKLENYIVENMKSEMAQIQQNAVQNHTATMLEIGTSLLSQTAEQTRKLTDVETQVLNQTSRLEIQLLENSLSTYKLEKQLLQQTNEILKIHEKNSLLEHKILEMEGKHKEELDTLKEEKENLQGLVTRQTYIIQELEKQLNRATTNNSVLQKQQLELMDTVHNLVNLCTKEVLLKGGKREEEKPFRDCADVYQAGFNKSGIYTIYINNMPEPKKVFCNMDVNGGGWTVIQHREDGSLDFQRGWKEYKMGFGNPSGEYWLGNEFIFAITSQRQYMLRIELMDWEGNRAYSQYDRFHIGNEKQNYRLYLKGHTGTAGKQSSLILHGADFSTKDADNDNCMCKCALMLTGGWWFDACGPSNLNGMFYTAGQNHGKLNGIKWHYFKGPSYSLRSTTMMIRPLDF

B1: human Angiopoietin-2 (ligand)
chain: YNNFRKSMDSIGKKQYQVQHGSCSYTFLLPEMDNCRSSSSPYVSNAVQRDAPLEYDDSVQRLQVLENIMENNTQWLMKLENYIQDNMKKEMVEIQQNAVQNQTAVMIEIGTNLLNQTAEQTRKLTDVEAQVLNQTTRLELQLLEHSLSTNKLEKQILDQTSEINKLQDKNSFLEKKVLAMEDKHIIQLQSIKEEKDQLQVLVSKQNSIIEELEKKIVTATVNNSVLQKQQHDLMETVNNLLTMMSTSNSAKDPTVAKEEQISFRDCAEVFKSGHTTNGIYTLTFPNSTEEIKAYCDMEAGGGGWTIIQRREDGSVDFQRTWKEYKVGFGNPSGEYWLGNEFVSQLTNQQRYVLKIHLKDWEGNEAYSLYEHFYLSSEELNYRIHLKGLTGTAGKISSISQPGNDFSTKDGDNDKCICKCSQMLTGGWWFDACGPSNLNGMYYPQRQNTNKFNGIKWYYWKGSGYSLKATTMMIRPADF
notes: Mostly bought recombinant protein (R&D Systems 623-AM/CF, 623-AN; biotinylated BT623) or supernatant of transfected 293F cells; also called Ang-2; rhAng-2
B2: recombinant human Tie2/Fc fusion protein (Fc fusion, UniProt Q02763 23-745, looked up, not shown: a dimerising Fc or GST)
chain: AMDLILINSLPLVSDAETSLTCIASGWRPHEPITIGRDFEALMNQHQDPLEVTQDVTREWAKKVVWKREKASKINGAYFCEGRVRGEAIRIRTMKMRQQASFLPATLTMTVDKGDNVNISFKKVLIKEEDAVIYKNGSFIHSVPRHEVPDILEVHLPHAQPQDAGVYSARYIGGNLFTSAFTRLIVRRCEAQKWGPECNHLCTACMNNGVCHEDTGECICPPGFMGRTCEKACELHTFGRTCKERCSGQEGCKSYVFCLPDPYGCSCATGWKGLQCNEACHPGFYGPDCKLRCSCNNGEMCDRFQGCLCSPGWQGLQCEREGIQRMTPKIVDLPDHIEVNSGKFNPICKASGWPLPTNEEMTLVKPDGTVLHPKDFNHTDHFSVAIFTIHRILPPDSGVWVCSVNTVAGMVEKPFNISVKVLPKPLNAPNVIDTGHNFAVINISSEPYFGDGPIKSKKLLYKPVNHYEAWQHIQVTNEIVTLNYLEPRTEYELCVQLVRRGEGGEGHPGPVRRFTTASIGLPPPRGLNLLPKSQTTLNLTWQPIFPSSEDDFYVEVERRSVQKSDQQNIKVPGNLTSVLLNNLHPREQYVVRARVNTKAQGEWSEDLTAWTLSDILPPQPENIKISNITHSSAVISWTILDGYSISSITIRYKVQGKNEDQHVDVKIKNATITQYQLKGLEPETAYQVDIFAENNIGSSNPAFSHELVTLPESQAPADLGGGK
notes: Bought fusion protein; also called hTie2/Fc; soluble Tie2/Fc

The target in experiment [1] is B2. The experiment can be described thus: FACS competition: binding of His-tagged recombinant human Ang-2 to Tie2 on HEK293F/Tie2 transfectants, soluble Tie2/Fc titrated, n = 3. The procedure:
(§1) Cell suspension of 4 million cells/mL in FACS Buffer were prepared, and then aliquoted to a 96-well polypropylene plate with 50 ul per well. […] Cells were washed by centrifuging the plate at 1,200 rpm for 5 minutes, removing the supernatant by aspirating, and resuspending the cells with 200 ul per well of FACS Buffer. Washing procedures were repeated twice. The cells were then suspended with 100 ul of mouse Anti-6×-Histidine antibody diluted to 2 ug/ml in FACS Buffer, and incubated at room temperature for 30 minutes. After washing, the cells were suspended in 100 ul of PE-conjugated goat anti-mouse-IgG, which was diluted 1:100 in FACS Buffer, for incubation at room temperature for 30 minutes. The volume of the samples were brought to 300 ul with FACS Buffer, and measured with FACS Calibur.

The target of experiment [2] is T1, human Angiopoietin-1. The experiment can be described thus: FACS: inhibition of Ang-1 binding to HEK293F/Tie2 cells. The procedure:
as §1

The target of experiment [3] is B1. Description: FACS: inhibition of Ang-2 binding to HEK293F/Tie2 cells. Here is the method: as §1

Regarding B1, the binding result in experiment [1] is reported as “binds”.
For orientation: EC50 means the concentration at which the effect is half-maximal. As to B2, the values for the EC50 in experiment [2] and in experiment [3] were 18.7 nM and 25.7 nM, respectively.

The values above are taken from patent US20080267971A1 (published 2008).
